Laboratory results reported in paper PMC4498904, “Mutagenesis Study Reveals the Rim of Catalytic Entry Site of HDAC4 and -5 as the Major Binding Surface of SMRT Corepressor” (PLoS ONE, 2015).

Experiments:
[1] = target: HA-HDAC4c, wild type, expressed in HEK293 cells (human, UniProt P56524 650-1055); assay: cell-based or functional assay
[2] = target: T1, KGN-SRD3c (N-terminal portion of Kusabira Green protein fused with SRD3c) (human, UniProt Q9Y618 1281-1504); assay: split reporter (BiFC, NanoBiT); quantitative BiFC (Kusabira Green, Fluo-Chase kit): KGN-SRD3c and KGC-HDAC coexpressed in HEK293, 48 h; fluorescence of cell lysates by spectrophotometer (ex 494 nm, em 538 nm); conditions: partners not purified
T1 construct: human SMRT, SRD3c region, amino acid 1281 to 1504; The methods say that KGN-MC-SRD3c was made in the KGC-MC vector; also called KGN-MC-SRD3c; source: HEK293, transfected, in cells or lysate
T1 sequence (Q9Y618 1281-1504): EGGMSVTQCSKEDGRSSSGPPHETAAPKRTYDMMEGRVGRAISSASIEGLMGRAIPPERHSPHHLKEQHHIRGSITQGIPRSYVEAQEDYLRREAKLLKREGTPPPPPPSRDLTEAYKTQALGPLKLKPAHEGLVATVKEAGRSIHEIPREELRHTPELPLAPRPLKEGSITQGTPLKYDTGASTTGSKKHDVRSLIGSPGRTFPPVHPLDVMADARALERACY

Row | fold repression of a Gal4-tk-luciferase reporter by Gal4N-fused wild-type HDAC4c (50 and 100 ng plasmid) in HEK293 cells; endogenous SMRT-HDAC3 complex [1] | fold increase of the BiFC fluorescent signal over the KGC empty vector [2] | Binder
1 | 7 fold |  | Human HDAC3 (enzyme, UniProt O15379 1-428, looked up) MAKTVAYFYDPDVGNFHYGAGHPMKPHRLALTHSLVLHYGLYKKMIVFKPYQASQHDMCRFHSEDYIDFLQRVSPTNMQGFTKSLNAFNVGDDCPVFPGLFEFCSRYTGASLQGATQLNNKICDIAINWAGGLHHAKKFEASGFCYVNDIVIGILELLKYHPRVLYIDIDIHHGDGVQEAFYLTDRVMTVSFHKYGNYFFPGTGDMYEVGAESGRYYCLNVPLRDGIDDQSYKHLFQPVINQVVDFYQPTCIVLQCGADSLGCDRLGCFNLSIRGHGECVEYVKSFNIPLLVLGGGGYTVRNVARCWTYETSLLVEEAISEELPYSEYFEYFAPDFTLHPDVSTRIENQNSRQYLDQIRQTIFENLKMLNHAPSVQIHDVPADLLTYDRTDEADAEERGPEENYSRPEAPNEFYDGDHDNDKESDVEI
2 |  | ~2 fold | KGC-HDAC5c (C-terminal portion of Kusabira Green protein fused with HDAC5c), wild type (domain or fragment, human, UniProt Q9UQL6 680-1087, looked up, human HDAC5 catalytic domain, amino acids 680 to 1087; also called KGC-MC-HDAC5c; source: HEK293, transfected, in cells or lysate) LFTTGVVYDTFMLKHQCMCGNTHVHPEHAGRIQSIWSRLQETGLLSKCERIRGRKATLDEIQTVHSEYHTLLYGTSPLNRQKLDSKKLLGPISQKMYAVLPCGGIGVDSDTVWNEMHSSSAVRMAVGCLLELAFKVAAGELKNGFAIIRPPGHHAEESTAMGFCFFNSVAITAKLLQQKLNVGKVLIVDWDIHHGNGTQQAFYNDPSVLYISLHRYDNGNFFPGSGAPEEVGGGPGVGYNVNVAWTGGVDPPIGDVEYLTAFRTVVMPIAHEFSPDVVLVSAGFDAVEGHLSPLGGYSVTARCFGHLTRQLMTLAGGRVVLALEGGHDLTAICDASEACVSALLSVELQPLDEAVLQQKPNINAVATLEKVIEIQSKHWSCVQKFAAGLGRSLREAQAGETEEAETVS
3 |  | ~2 fold | KGC-HDAC4c (C-terminal portion of Kusabira Green protein fused with HDAC4c), wild type (domain or fragment, human, UniProt P56524 650-1055, looked up, also called KGC-MC-HDAC4c; source: HEK293, transfected, in cells or lysate) PRFTTGLVYDTLMLKHQCTCGSSSSHPEHAGRIQSIWSRLQETGLRGKCECIRGRKATLEELQTVHSEAHTLLYGTNPLNRQKLDSKKLLGSLASVFVRLPCGGVGVDSDTIWNEVHSAGAARLAVGCVVELVFKVATGELKNGFAVVRPPGHHAEESTPMGFCYFNSVAVAAKLLQQRLSVSKILIVDWDVHHGNGTQQAFYSDPSVLYMSLHRYDDGNFFPGSGAPDEVGTGPGVGFNVNMAFTGGLDPPMGDAEYLAAFRTVVMPIASEFAPDVVLVSSGFDAVEGHPTPLGGYNLSARCFGYLTKQLMGLAGGRIVLALEGGHDLTAICDASEACVSALLGNELDPLPEKVLQQRPNANAVRSMEKVMEIHSKYWRCLQRTTSTAGRSLIEAQTCENEEAET
